Reference: article doi:10.1101/2024.05.22.595265 (bioRxiv, 2024)

Molecular target: T1, Aurora-A kinase domain 122-403 C290A,C393A (UniProt O14965 122-403, C290A | C393A)
T1 construct: Aurora-A Ser/Thr kinase, kinase domain, residues 122-403
T1 sequence (looked up): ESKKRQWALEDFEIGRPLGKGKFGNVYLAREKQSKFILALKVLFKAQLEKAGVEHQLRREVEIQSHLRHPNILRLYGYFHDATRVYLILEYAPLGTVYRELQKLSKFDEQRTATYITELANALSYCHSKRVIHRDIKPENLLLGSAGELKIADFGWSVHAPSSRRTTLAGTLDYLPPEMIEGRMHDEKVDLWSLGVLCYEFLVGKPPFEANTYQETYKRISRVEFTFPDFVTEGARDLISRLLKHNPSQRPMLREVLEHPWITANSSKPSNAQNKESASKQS
Test: NMR titration; 1H-15N HSQC of 15N-labelled N-myc constructs (150-315 uM); aliquots of Aurora-A (305-400 uM) added up to [N-myc]:[Aurora-A] 1:1.4; 20 mM (K/H)3PO4 pH 6.5, 150 mM NaCl, 2 mM beta-mercaptoethanol, 1% glycerol, 5 mM MgCl2, 5 mM ADP
Conditions: both partners purified

| Binder | binding result |
| --- | --- |
| N-myc transactivation domain, N-myc 1-137 (domain or fragment, 15N-labelled for the NMR titration; also called N-myc TAD; N-myc_(1-137) TAD; not shown: His-NusA, N-terminal, cleaved) GAMMPSCSTSTMPGMICKNPDLEFDSLQPCFYPDEDDFYFGGPDSTPPGEDIWKKFELLPTPPLSPSRGFAEHSSEPPSWVTEMLLENELWGSPAEEDAFGLGGLGGLTPNPVILQDCMWSGFSAREKLERAVSEKLQHG | binds |
| N-myc 64-137 (domain or fragment, N-myc residues 64-137 (AIH and MBII); 15N-labelled; not shown: His-NusA, N-terminal, cleaved) GAMGSRGFAEHSSEPPSWVTEMLLENELWGSPAEEDAFGLGGLGGLTPNPVILQDCMWSGFSAREKLERAVSEKLQHG | binds |
